# Test results: the DeepSol protein solubility set
# Assay: soluble on expression in E. coli; label from the status in PepcDB or PDB records
row,Sequence,soluble on expression in E. coli
1,MGSDKIHHHHHHMDLNEIIEKLKDILSEEKEGQKVLDRDVALALHIHPQSFACMKSRQKIPYEEILAFCAKRKISANWLFYNQAPESLIDTTNQYCYIRYFSQVHASAGGGAFNDTEACERIKLDAFWVERLGGEKEIKQIEAIAVTGDSMEPTLEDGDLIFIHRQKRQISKGGIFVIQTPHGIFVKRLQERLDGGVDILSDNSLYPTQTLERDGIEVIGRVVGALKNLE,not soluble
2,PAEIHIITAARGRGKSTLAGKLAEQFAKTEQVILTAHRSSSIQKILQTASINIPFFAPDKLLNLIETKQISADHLLFIDEAACIPLPILQQLGNYFKKVILTTTTQNYEGTGRGFKLKLVKQLHRTTKEWQLFQPLRWSNHDRLEQFTNELLLLN,not soluble
3,MINANRPIINLDLDLLRTFVAVADLNTFAAAAAAVCRTQSAVSQQMQRLEQLVGKELFARHGRNKLLTEHGIQLLGYARKILRFNDEACSSLMFSNLQGVLTIGASDESADTILPFLLSRISSVYPKLALDVRVKRNAYMVDMVKSQEVDLVVTTNQPHSLDCLNLRTSPTHWYCAAEYVLQRGEPVPLVLLDDPSPFRDMVLETLNAAGIPWRLAYVASTLPAVRAAVKAGLGVTARPVEMMSPDLRVLGAADGLPPLPDTEYLLCRDPNSQNELAMVIFHAMESYQNPWHYNQFSAEGGDDPLMVEGGFE,not soluble
4,MNENWNWSLVDKVVYINLKERTDRNEHIKKELEKVCFPPEKIIRFEAIRAGSGFIGCAKSHLAVLKMAQENNWRNILILEDDMVFEDDDETIIRTNNFLSKLNNIHWDAAFLSASYYIVNAIDDNFFKVNFAYLANSYLVNNHYYEKLINNYTESVQRLTNGESSSEYGLDSNWLKIMKIDNWYGIYPVIGYQRTDISDIEYKEIDRTHQFTRTFDKMKAYGSK,soluble
5,MGSDKIHHHHHHMTRVLKVDPLFPDEKVLKEAAELLRNGEVIIFPTETVYGIGADAYNEEACKKIFKLKERPADNPLIVHIHSFKQLEEIAEGYEPHLDFLKKFWPGPLTVIFRKKSEKIPPVVTADLPTVAVRMPAHPVALKLIELFGHPIAAPSANISGRPSATNVKHVIEDFMGKVKLIIDAGDTPFGLESTIVDLTKEKPVLLRPGPVEVERLKELFPELVVPDFVRKGNFKGRPLAPGMKYRHYAPLKPLILVEDLTKMEEVLKKYPDHVVICVEERKELYDDRIVVGSLKNPYSIAQNIFSALREAEKMGKEYIIVEGFEERGILFAVMNRLRKAATEIVR,not soluble
6,GPLGSPEFPHPLQDSWSYYLFQFRKALDWDECLEKVATFSTIEDFWSVLTHTVRPREITYGKDLYMFKSDIMPKWEDPKNENGGRWLINVTARQDVDFLWDELLMLLIGSDWDTDEEDRQICGAVFQPRSRGSKLSVWLTSDNEEETILSIGRRIKERLELEDTIYFQPVSDQRSQTRGSDICTGKYEI,soluble
7,GSMKPYKELERVFTKLYRYGHMLLLADWDSHTMMPCKGSDARGAAMAELQLHMHDTITAPKIRALIEEAEKSVGDLEKLQRANLREMRRAWELENLLPEEFVERKTVLTTKAHQVWKTCREKNDFAGFLPTLKELIALFREEGKLRAGNSGKHPYEALVDIYEPGMTLQRLDEIFGNVRSWLPELLKEVQEKQKALGETVLEPKGPFPVSKQEALCRFFMDVWKFDFDGGRLDVSAHPFCGNSKEDVRITTKYTETEFVTSLLGVIHETGHAKYEQNCGPKGFETQPVCMARSLGVHEGQSLFAEMQIGRSGAFMEFLAPRLVEYFGDQPAFTSSNMKRVIQRVSPGLIRIDADELCYPLHVMLRYEIERDLMDGNIEAEEVPRVWNEKMKSYLGLETLGNDKEGCLQDVHWSGGMFGYFPTYSLGAMVAAQLMSCVRRELGEEVVDDCIRKGDLGKILAKQNEKIWQHGSSLTTDELLRQATGETLNPEHYRRHLERRYRDDRG,soluble
8,AHHHHHHGSRVLKSEGVSMLNTELLTTGVKGLDELLGGGVAKGVILQVYGPFATGKTTFAMQVGLLNEGKVAYVDTEGGFSPERLAQMAESRNLDVEKALEKFVIFEPMDLNEQRQVIARLKNIVNEKFSLVVVDSFTAHYRAEGSREYGELSKQLQVLQWIARRKNVAVIVVNQVYYDSNSGILKPIAEHTLGYKTKDILRFERLRVGVRIAVLERHRFRPEGGMVYFKITDKGLEDVKNED,soluble
9,MDRVIAAQVYLRICELGSLSAAARALGMSRPMVSRYLEQMESWAGARLIHRSTRRLTLTPAGEKVLLKTRGLTRIADEIAGERQRADPSGTLRVACAHFTAMQLISPLLPDFLARYPLLRLELDINNHPVSLIGERIDVAIRITDNPEAGAIARRLGVCRSLLCAAPGWMRQHGPLTTPDDLQRHNCLLYSHFASQHWQFSDAQGREASVAVNGNLSAGISSLLLEAAVAGCGIAMLPELEARGAIASGTLEVVLPEWTPKALSVYGIYLSRDYQPDGLPLFLDALQRRLGEETGHG,not soluble
10,GSQRVLVEPDAGAGVAVMKFKNPPVNSLSLEFLTELVISLEKLENDKSFRGVILTSDRPGVFSAGLDLTEMCGRSPAHYAGYWKAVQELWLRLYQSNLVLVSAINGACPAGGCLVALTCDYRILADNPRYCIGLNETQLGIIAPFWLKDTLENTIGHRAAERALQLGLLFPPAEALQVGIVDQVVPEEQVQSTALSAIAQWMAIPDHARQLTKAMMRKATASRLVTQRDADVQNFVSFISKDSIQKSLQMYLERLKEEKG,soluble
11,MRSLARGVTTNISKLIEARPKNTGQTVYLTHVKWVTGKSQLEHYFKRYGSIQSVNMFYDPDTGLHRGFASITFDSKDGANKAIEQRPHVIDGDRVDVEPYIPLISKNKKKDLML,not soluble
12,MAESCVKPQLPRPRIPNIRVFQPTTRIPTFTYEQFNESVEILPSRPECLYRRNDPTNRSYRMKKRPPAQIYHCVQCNKHIKYPSKITEHIRKHTGEKPNVCSICNISFSQAHTLKTHMQQHAHEKPYKCSFCTAEFLNVYEKNEHEEQHMHHPNHGETMEENNATTSQFIQVAEPTIQAEPCQIYECSEMCGFQSYEEAEVVEHMTVTHYQQTKKSKEIPKLKNPGFSINFNYFQVQNGLILQDFNGEPEPIYEFYEEQYVQQVPTEIEETPTIKQQSIPYENLHFEHVEAAPGPSEPHLQVVAEGEILYDGEEIVDISNGKSLKEEIQNGDANIYGMIQDLEEEVEDIGNEDEERERVRIMVNPNPPKRGTKSLRDHHEATAATMEMIVDASILELAEPSRHLKQGYPPISKRKNTGKRAENLDWIIDAVAKGVDVSEASPHHRKKPTLHKCEYCGRVDKYPSKIRAHMRTHTGEKPFKCEICGMAFSQKTPMRLHLRRHFDQKPYECDVDGCKERFVSGAILKMHVEKKHLNKKKYVCSRGCGRVFSSAYNQKHHEKKCEQTYVTWVEGEQQSVESGEEDEESNGEYPDDDEEYMDDMIDASTSQPINRVVEHFSEEPVFLHQ,not soluble
13,MFYLSELEHSLRVPPHLLNLPLEDAIKSVLQNVFLDKVLADLGLCVSIYDIKSVEGGFVLPGDGAATYKVGLRIVVFRPFVGEVIAAKFKESDANGLRLTLGFFDDIYVPAPLMPKPNRCEPDPYNRKQMIWVWEYGEPKEDYIVDDACQIKFRVESISYPSVPTERAEDAKPFAPMVVTGNMDDDGLGPVSWWDSYEQVDQEE,soluble
14,SASTIYTCKECGSDLNLNPNDLFPPDFYFEAGNKGTLSFAAVDAEKFRFEKEDKIMPFFETLNYWGIQRKRTKIKCTSCNHLIGYIYDDGPPLTGGIGQYGFGPSQVIPRAPRYRFKTKARQDGWQYGGLTAFWN,soluble
15,MGSDKIHHHHHHMLYVTGITGHSGQWFVKRLISEGYKGRIRCIVLPESDTDFLNKSGLDIDIVSGNLNDQEFLTSTMVGCSTVLHIASIDFSRNVVKAALDNNLDWAILVHTTGRYSKYKSASAEYIEIEEYVLKFRNRMGITVLRPTMIYGSSRDRNMYKLITFLHKIKFFPMFGEGENLMQPVHARDLGNAYYDVIVNRSTTFNKGYNLPGKRPLTYMELVRTVSDTLGRKNVIIKIPLWFSILAARVYNALDKNAIISVEQVLRMQEDKAFDYEDAVRDFSYSPVSFEDGIVEEVNEYLARYNSSRTKQR,not soluble
16,MGSDKIHHHHHHMWKSISQVLAEQFGAYYFIKHKEKLYSGEMNEIWLINDEVQTVFVKINERSYRSMFRAEADQLALLAKTNSINVPLVYGIGNSQGHSFLLLEALNKSKNKQSSFTIFAEKIAQLHQIQGPDKYGLDFDTWLGPIYQPNDWQTSWAKFFSENRIGWQLQICKEKGLIFGNIDLIVQIVADTLSKHNPKPSILHGNLWIENCIQVDDKIFVCNPACYWGDRECDIAFSSLFEPFPTNFYQRYNEIYPLEEGYLERKLIYQLYYLLNFSYRYYNKKQSYVSLTQKLINQILHKIDK,not soluble
17,LKDSYVEYTLLYDTIASRISIDEVEAKDGKLRLMKNVWWEYDKLPHMLIAGGTGGGKTYFILTLIEALLHTDSKLYILDPKNADLADLGSVMANVYYRKEDLLSCIETFYEEMMKRSEEMKQMKNYKTGKNYAYLGLPAHFLIFDEYVAFMEMLGTKENTAVMNKLKQIVMLGRQAGFFLILACQRPDA,not soluble
18,MAHHHHHHMAKKHLKRLYAPKDWMLSKLTGVFAPRPRAGPHKLRECLSLLIIIRNRLKYALNALEAQMILRQGLVCVDGKPRKDGKYPAGFMDVVEIPKTGDRFRILYDVKGRFALVRVSEAESSIKMMKVVNVYTGTGRIPVAVTHDGHRIRYPDPRTSRGDTLVYDVKEKKVLDLIKIGNGKVVMVTGGANRGRIGEIVSIERHPGAFDIARLKDASGHEFATRATNIFVIGKDMSSVPVTLPKQQGLRINVIQEREEKLIAAETRRTTQAHSKRKTKV,not soluble
19,MSEDQMKQQLVIDQKAVKETLQQMLTSDQGKKFWESALKDPKFAESFAKGLQAEHEKMMKALMKDPDYQALMIDILKDPEMEKAMVDVLKSKEFRQHLQKVITETLNSPLYQAKIQDMLMKAAEKVQQGGEKQEEEGGGEGGEGEGEESTGNQQGGGG,not soluble
20,SENDVIELDDVANLMFYGEGEVGDNHQKFMLIFDTGSANLWVPSKKCNSIGCSTKHLYDSSKSKSYEKDGTKVEITYGSGTVRGFFSKDLVTLGYLSLPYKFIEVTDTDDLEPLYTAAEFDGILGLGWKDLSIGSIDPIVVELKNQNKIDQALFTFYLPVHDKHSGYLTIGGIEEKFYEGELTYEKLNHDLFWQVDLDVNFGKTSMEKANVIVDSGTSTITAPTSFINKFFKDLNVIKVPFLPFYITTCNNKDMPTLEFKSANNTYTLEPEYYMEPLLDIDDTLCMLYILPVDIDKNTFILGDPFMRKYFTVFDYDKESIGFAVAKN,soluble
21,MKSKLKLHGFNNLTKTLSFNIYDICYAETPQDQQAYVEYINSVYDAERLTRILTDVVDIIGANILNIARQDYDPQGASVTILISEQPVTPTESQIEESPGPLPETILAHLDKSHITVHTYPEIHPVDGIATFRVDIDVSTCGVISPLKALNYLIHKFESDIVTVDYRVRGFTRDVEGKKHFIDHEINSIQNYLSEDTRNGYQMTDVNVYQENLFHTKMLLKQFELDNYLFGDATSNLSAEQREQVTAKVKHEMLEIFYGRNVAV,not soluble
22,MSAPDLFVAHFREAVPYIRQMRGKTLVAGIDDRLLEGDTLNKLAADIGLLSQLGIRLVLIHGARHFLDRHAAAQGRTPHYCRGLRVTDETSLEQAQQFAGTVRSRFEAALCGSVSGFARAPSVPLVSGNFLTARPIGVIDGTDMEYAGVIRKTDTAALRFQLDAGNIVWLPPLGHSYSGKTFYLDMLQTAASAAVSLQAEKLVYLTLSDGISRPDGTLAETLSAQEAQSLAEHAGGETRRLISSAVAALEGGVHRVQILNGAADGSLLQELFTRNGIGTSIAKEAFVSIRQAHSGDIPHIAALIRPLEEQGILLHRSREYLENHISEFSILEHDGNLYGCAALKTFAEADCGEIACLAVSPQAQDGGYGERLLAHIIDKARGIGISRLFALSTNTGEWFAERGFQTASEDELPETRRKDYRSNGRNSHILVRRLHR,not soluble
